Test [1] has as its system mammalian cells expressing CRBN fused with a FLAG epitope tag. The test is described as follows: CRBN ubiquitin ligase activity using live cells (self-ubiquitination, immunoblotting). Format: cell-based. Conditions: MG132 added versus not added (FIG. 5). As for the experimental part: This process was carried out basically in accordance with the method of Ohtake et al. MG132, which is a proteasome inhibitor, was applied to mammalian cells expressing CRBN fused with a FLAG epitope tag, and the cells were left still. Subsequently, the cells were disrupted, and from the resulting cell lysate solution, FLAG was purified and CRBN was extracted, and then immunoblotting was performed under similar, but stricter, conditions to the above, whereby the self-ubiquitination was detected and measured.
In general terms: In western blotting, separated proteins are transferred to a membrane and probed.

Test [2] deals with T1, Ub/E1/E2 (GST fusion ubiquitin, Uba1, UbcH5b) (Homo sapiens, UniProt P0CG47+P22314+P62837).
T1 construct: a recombinant GST fusion ubiquitin (Ub) protein
The test is described as follows: Ubiquitin ligase activity of CRBN using an in vitro reaction system. Format: biochemical. Conditions: added to Uba1, UbcH5b and GST fusion ubiquitin; FIG. 4, lane 2. As for the experimental part:
This process was carried out basically in accordance with the method of Groisman et al. Firstly, CRBN and a binding protein (referred to as a CRBN complex) were purified from a cell lysate solution of mammalian cells expressing CRBN fused with a FLAG epitope tag using M2 FLAG agarose beads (SIGMA). Subsequently, the CRBN complex thus purified was mixed with an aqueous solution containing Uba1 (E1), UbcH5b (E2), and a recombinant GST fusion ubiquitin (Ub) protein, and after addition of ATP, the mixture was left to stand at 30 to 37° C. for two hours. Thereafter, the reaction was terminated by SDS, and self-ubiquitination and ubiquitination of the binding protein were visualized by polyacrylamide gel electrophoresis and immunoblotting, whereby the ubiquitin ligase activity was detected and measured.

For test [3], the system named is forebrain and midbrain of the zebrafish embryos. The test is described as follows: CRBN overexpression experiment in the forebrain and midbrain. Format: in vivo. On the procedure: Adult fish were reared at a constant temperature of 28.5° C. and maintained and bred under a diurnal cycle of 14 hours of light-on and 10 hours of light-off. Fertilized eggs were secured by natural mating between males and females, and an aqueous solution of 600 ng/μl capped RNA synthesized in vitro was injected into the cytoplasm of the embryos before the first cleavage (1-cell stage) under conditions of a nitrogen gas pressure of 30 psi and a valve opening time of 30 msec (millisecond). Because the expression of all the genes except the lhx2 gene (i.e., the crbn gene, the six3.2 gene, and a gene encoding a protein composing an E3 ubiquitin ligase complex with crbn) has little impact on the embryonic development, even when systemically expressed, this method was used to obtain the first data.
(§1) The method of lipofection was entirely in accordance with the technique developed and published by Ando et al. (Ando and Okamoto, Efficient transfection strategy for the spatiotemporal control of gene expression in zebrafish. Mar. Biotechnol. 8(3): 295-303, 2006).
Antibody staining of early neurons of zebrafish was performed by the following technique. The embryos 24 to 28 hours after fertilization were fixed at 4° C. for 12 hours in a 4% paraformaldehyde/phosphate buffer (pH 8.0). […]

Test [4] concerns glia cells and serotonin-producing cells of zebrafish. As to the kind of experiment: Fluorescent staining of glia cells and serotonin-producing cells. The format is in vivo. Conditions: CRBN-overexpressing individual. As for the experimental part:
Two-day-old zebrafish were used (for glia cell staining and serotonin-producing cell staining, zebrafish 56 hours and 49 hours after fertilization were used, respectively). Zebrafish were fixed with 4% paraformaldehyde (PFA) and then washed with phosphate buffer (PBS), followed by treatment with 10 μg/ml protease K for partial digestion of the epidermis. After the digestion reaction, the zebrafish were washed with PBST (PBS+0.5% Triton X-100) for 20 minutes and then fixed with PFA again. The fixed zebrafish were washed with PBST at room temperature for one hour, followed by blocking using PBST+5% goat serum. The resulting specimens were reacted with a monoclonal anti-glia antibody (zrf-1/zrf-2) or a rabbit anti-serotonin antibody at 4° C. overnight (12 to 18 hours). Subsequently, the specimens were washed with PBST+5% goat serum for one hour at room temperature, and secondary antibody reaction was carried out by substituting the antibody for a goat anti-mouse IgG antibody (Cy-2 conjugate for glia cell staining) or a goat anti-rabbit IgG antibody (Cy-5 conjugate for serotonin-producing cell staining) at 4° C. overnight (12 to 18 hours). Subsequently, the specimens were washed with PBST at room temperature for one hour. After washing, PBST was replaced by 30%, 50%, 70% glycerol/PBS and the whole zebrafish were mounted on glass slides to obtain preparations. Fluorescence was observed under excitation wavelength of Cy-2 and Cy-5 and the distribution of the glia cells or the serotonin-producing cells was recorded. It is to be noted that glia cells were observed from the lateral side of zebrafish, while the serotonin-producing cells were photographed from the dorsal side in order to observe the distribution of the cells along the midline.

The next test deals with zebrafish embryo brain. The test is described as follows: Determination of functional hierarchy of Lhx2 and CRBN (knockdown plus head-specific overexpression). The format is in vivo. On the procedure:
as §1
An aqueous solution of a 25-mer antisense morpholino oligonucleotide (AMO, Gene Tools, LLC) corresponding to the vicinity of the translation initiation codon in the cDNA sequence of the gene to be knocked down (700 ng/μl, injection conditions were the same as those used for RNA) was injected into the embryos at the 1-cell stage. The sequence of AMO used for crbn gene knockdown is 5′ […] 3′ (SEQ ID NO:1), and that used for lhx2 gene knockdown is 5′ […] 3′ (SEQ ID NO:2).
This process was carried out entirely in accordance with the technique of Ando et al. (H. Ando et al., Lhx2 mediates the activity of Six3 in zebrafish forebrain growth. Dev. Biol. 287(2): 456-468, 2005) except for the following procedure. […] When the effect of knocking down of A is rescued, whereas the effect of knocking down of B is not rescued by an inverted combination of A and B, within a 24-hour period after fertilization, it is determined that A lies functionally upstream of B. […]

Where a SMILES comes first, the peptide text is derived from it. The star is where a group is joined. Cbz = O=C(OCc1ccccc1)*

Consider three molecules from patent publication US9611465B2, “Pharmaceutical composition containing core factor involved in proliferation and differentiation of central nervous cell” (Celgene Corporation, priority 2009, dated 2017).

T1 sequence (P22314 whole entry, other chains not shown, the tested form may be a part): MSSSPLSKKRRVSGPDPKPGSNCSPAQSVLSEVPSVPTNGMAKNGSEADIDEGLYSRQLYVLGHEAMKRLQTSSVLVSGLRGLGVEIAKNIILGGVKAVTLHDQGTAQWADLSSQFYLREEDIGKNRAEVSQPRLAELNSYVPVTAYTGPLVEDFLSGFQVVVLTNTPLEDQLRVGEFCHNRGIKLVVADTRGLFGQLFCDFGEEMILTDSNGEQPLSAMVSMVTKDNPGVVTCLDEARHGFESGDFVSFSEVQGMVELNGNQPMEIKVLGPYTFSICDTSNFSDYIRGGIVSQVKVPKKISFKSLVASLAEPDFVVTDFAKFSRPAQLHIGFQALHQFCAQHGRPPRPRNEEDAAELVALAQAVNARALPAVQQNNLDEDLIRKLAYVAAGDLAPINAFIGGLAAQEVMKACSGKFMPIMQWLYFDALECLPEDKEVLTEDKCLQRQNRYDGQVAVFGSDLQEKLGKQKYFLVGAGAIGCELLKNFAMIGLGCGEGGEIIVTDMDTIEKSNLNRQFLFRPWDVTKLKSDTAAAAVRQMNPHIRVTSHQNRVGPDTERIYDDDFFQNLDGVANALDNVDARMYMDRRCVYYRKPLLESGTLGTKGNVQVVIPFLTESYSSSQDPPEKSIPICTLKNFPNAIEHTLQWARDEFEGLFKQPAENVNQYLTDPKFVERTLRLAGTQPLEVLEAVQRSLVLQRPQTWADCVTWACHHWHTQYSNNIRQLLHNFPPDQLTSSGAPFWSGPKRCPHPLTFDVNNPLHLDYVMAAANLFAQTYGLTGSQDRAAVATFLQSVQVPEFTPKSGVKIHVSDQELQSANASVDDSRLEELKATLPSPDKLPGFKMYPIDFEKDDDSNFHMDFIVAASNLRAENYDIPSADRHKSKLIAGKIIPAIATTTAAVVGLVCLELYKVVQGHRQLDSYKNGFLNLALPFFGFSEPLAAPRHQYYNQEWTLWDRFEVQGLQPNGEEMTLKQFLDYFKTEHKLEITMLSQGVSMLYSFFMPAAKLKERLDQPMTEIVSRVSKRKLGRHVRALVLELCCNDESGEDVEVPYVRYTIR
T1 sequence (P62837 whole entry, other chains not shown, the tested form may be a part): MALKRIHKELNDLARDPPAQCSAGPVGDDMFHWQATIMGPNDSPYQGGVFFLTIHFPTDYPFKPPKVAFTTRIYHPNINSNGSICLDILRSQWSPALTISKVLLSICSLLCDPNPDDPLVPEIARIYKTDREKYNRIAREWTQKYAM

For `CC(C)C[C@@H](C=O)NC(=O)[C@H](CC(C)C)NC(=O)[C@H](CC(C)C)NC(=O)OCc1ccccc1` [MG132] (Cbz-Leu-Leu-Leu-aldehyde), in test [1], the “bands representing the CRBN-containing proteins (self-ubiquitination)” value is reported as “a number of bands representing the CRBN-containing proteins were detected”.
In the case of “FH-CRBN complex: CRBN fused with a FLAG epitope tag and binding proteins, purified from mammalian cell lysate with M2 FLAG agarose beads”, the “detection of ubiquitinated proteins by immunoblotting” value in test [2] is recorded as “proteins that would not be detected in the absence of addition of CRBN were detected”.

B1: CRBN: protein called CRBN (cereblon) that forms a ubiquitin ligase complex; overexpressed in zebrafish embryos by injected or lipofected crbn RNA (protein, UniProt Q68EH9 1-431, looked up)
Protein cereblon: MGNQLQLLPENEEEEEDDMETEDRDGEDVEKPSIINFDTSLPTSHAYLGSDMEEFHGRTLHDEDSVQNLPVLPHVALILIPGQTLPLQLFRPQEVSMFRNLVSQDRTFAVLAHSPDPSGTETKAEFGTTAEIYAFREEQEYGIETVKIKAVGRQRFRVHDIRTQADGIRQAKVQILPERILPDPLCALQFLPRLHTHSPQTKHTQTTPPQKRCSQNYRQKKLHCASMTSWPPWVYSLYDSKTLMSRVKKQLHEWDENLKDESLPTNPTDFSYRVAACLPIDDALRLQLLKIGSAIQRLRCELDIMDRCTSLCCKQCQDTEITSKNEIFSLSLYGPMAAYVNPHGYVHETLTVYKASNLNLIGRPSTLHSWFPGYAWTIAQCRTCSSHMGWKFSAVKKDLSPPRFWGLTRSALLPTIPQGEEGVEGSRLLCL
Regarding B1, the “morphology of the neuron network in the brain” value in test [3] (CRBN overexpression (FIG. 2, right)) was “morphologically normal”. Also, the “enlargement of forebrain and midbrain in volume” value in test [3] (CRBN overexpression, shape retained (FIG. 2, right)) is “approximately 1.5 times”. The “spatial distribution of glia cells and serotonin-producing cells” value in test [4] is listed as “normal spatial distribution was maintained”. In addition, the serotonin-producing cells entry in test [4] (49 hours after fertilization (FIG. 7)) is recorded as “increased”. In addition, the glia cells entry in test [4] (56 hours after fertilization (FIG. 6)) is “increased”. Besides, the “brain size of embryo” value is on record as “brain enlargement” in the test with zebrafish embryo brain (crbn gene-overexpressing embryo, compared to the normal embryo (FIG. 1, upper right)) and “brain enlargement” with zebrafish embryo brain (lhx2 gene knocked down while crbn gene overexpressed (FIG. 1, lower right)).
